# Measured values taken from article PMC5007331, “YTHDF2 destabilizes m^6A-containing RNA through direct recruitment of the CCR4–NOT deadenylase complex” (Nature Communications, 2016).
# T1: His-tagged full-length YTHDF2 (human, UniProt Q9Y5A9 1-579)
# T1 sequence (looked up): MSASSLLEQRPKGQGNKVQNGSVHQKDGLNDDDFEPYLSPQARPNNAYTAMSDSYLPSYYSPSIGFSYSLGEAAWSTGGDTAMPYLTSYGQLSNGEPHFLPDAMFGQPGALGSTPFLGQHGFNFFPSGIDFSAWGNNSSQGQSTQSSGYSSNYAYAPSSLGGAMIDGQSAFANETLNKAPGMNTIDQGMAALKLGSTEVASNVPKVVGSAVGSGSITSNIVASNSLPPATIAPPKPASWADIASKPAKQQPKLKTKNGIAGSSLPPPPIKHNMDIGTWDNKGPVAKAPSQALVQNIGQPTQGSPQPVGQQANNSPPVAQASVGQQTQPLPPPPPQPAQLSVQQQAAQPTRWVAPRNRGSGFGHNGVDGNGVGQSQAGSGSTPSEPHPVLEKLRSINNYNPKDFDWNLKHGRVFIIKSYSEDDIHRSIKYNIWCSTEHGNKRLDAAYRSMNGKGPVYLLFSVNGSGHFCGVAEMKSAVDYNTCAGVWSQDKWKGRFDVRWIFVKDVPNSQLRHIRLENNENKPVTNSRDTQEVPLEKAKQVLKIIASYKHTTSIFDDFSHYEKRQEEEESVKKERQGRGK
# B1: CNOT1 SH domain-GST fusion protein (aa 1842-2376) (domain or fragment, human, UniProt A5YKK6 1842-2376, looked up)
# chain: YDDPPGLREKAEYLLREWVNLYHSAAAGRDSTKAFSAFVGQMHQQGILKTDDLITRFFRLCTEMCVEISYRAQAEQQHNPAANPTMIRAKCYHNLDAFVRLIALLVKHSGEATNTVTKINLLNKVLGIVVGVLLQDHDVRQSEFQQLPYHRIFIMLLLELNAPEHVLETINFQTLTAFCNTFHILRPTKAPGFVYAWLELISHRIFIARMLAHTPQQKGWPMYAQLLIDLFKYLAPFLRNVELTKPMQILYKGTLRVLLVLLHDFPEFLCDYHYGFCDVIPPNCIQLRNLILSAFPRNMRLPDPFTPNLKVDMLSEINIAPRILTNFTGVMPPQFKKDLDSYLKTRSPVTFLSDLRSNLQVSNEPGNRYNLQLINALVLYVGTQAIAHIHNKGSTPSMSTITHSAHMDIFQNLAVDLDTEGRYLFLNAIANQLRYPNSHTHYFSCTMLYLFAEANTEAIQEQITRVLLERLIVNRPHPWGLLITFIELIKNPAFKFWNHEFVHCAPEIEKLFQSVAQCCMGQKQAQQVMEGTGAS
# How the values were obtained:
# [1] = molecular target: B1; test: pull-down; GST pull-down: 40 pmol YTHDF2 fragment with 40 pmol GST or GST-CNOT1 (aa 1842-2376) on glutathione Sepharose-4B; 20 mM HEPES pH 7.4, 200 mM NaCl, 0.1% Tween-20; 2 h at 4 °C; SDS-PAGE and Coomassie Blue staining; conditions: both partners purified
# [2] = molecular target: T1, His-tagged full-length YTHDF2; test: as above; conditions: both partners purified
binding result [1],binding result [2],Binder
binds,–,"His-tagged YTHDF2-101-200 (domain or fragment, human, UniProt Q9Y5A9 101-200, looked up, Cloned into pET-28a; source: E. coli, purified recombinant) PDAMFGQPGALGSTPFLGQHGFNFFPSGIDFSAWGNNSSQGQSTQSSGYSSNYAYAPSSLGGAMIDGQSAFANETLNKAPGMNTIDQGMAALKLGSTEVA"
binds,–,"His-tagged YTHDF2-N (YTHDF2-1-400) (domain or fragment, human, UniProt Q9Y5A9 1-400, looked up, YTHDF2, human, N-terminal region, aa 1-400; Cloned into pET-28a; The YTHDF2-N of the tethering plasmids is another construct (aa 1-389); source: E. coli, purified recombinant) MSASSLLEQRPKGQGNKVQNGSVHQKDGLNDDDFEPYLSPQARPNNAYTAMSDSYLPSYYSPSIGFSYSLGEAAWSTGGDTAMPYLTSYGQLSNGEPHFLPDAMFGQPGALGSTPFLGQHGFNFFPSGIDFSAWGNNSSQGQSTQSSGYSSNYAYAPSSLGGAMIDGQSAFANETLNKAPGMNTIDQGMAALKLGSTEVASNVPKVVGSAVGSGSITSNIVASNSLPPATIAPPKPASWADIASKPAKQQPKLKTKNGIAGSSLPPPPIKHNMDIGTWDNKGPVAKAPSQALVQNIGQPTQGSPQPVGQQANNSPPVAQASVGQQTQPLPPPPPQPAQLSVQQQAAQPTRWVAPRNRGSGFGHNGVDGNGVGQSQAGSGSTPSEPHPVLEKLRSINNYNP"
–,binds,B1
